The source of these data is paper PMC6208734.

Test [1] concerns the target AD-PHF Tau (paired helical filament Tau isolated from Alzheimer's disease brains) (human (endogenous in AD brain)).
The target is the same in test [2]. Description: SPR; AD-PHF fraction 11 amine-coupled to a CM5 chip (about 500 RU); full-length IgG 1-300 nM as analyte, 180 s injection, 1200 s dissociation; BIAcore T200, 25 °C; HBS-EP+ with additional 150 mM NaCl and 1.25% CM-Dextran; extrinsic affinity; 1:1 binding or bivalent analyte model. A general note: In SPR one partner is held on a chip, and binding of the other changes the refractive index at the surface.

AD-PHF Tau (paired helical filament Tau isolated from Alzheimer's disease brains) (human (endogenous in AD brain)), sequence (P10636 2-758): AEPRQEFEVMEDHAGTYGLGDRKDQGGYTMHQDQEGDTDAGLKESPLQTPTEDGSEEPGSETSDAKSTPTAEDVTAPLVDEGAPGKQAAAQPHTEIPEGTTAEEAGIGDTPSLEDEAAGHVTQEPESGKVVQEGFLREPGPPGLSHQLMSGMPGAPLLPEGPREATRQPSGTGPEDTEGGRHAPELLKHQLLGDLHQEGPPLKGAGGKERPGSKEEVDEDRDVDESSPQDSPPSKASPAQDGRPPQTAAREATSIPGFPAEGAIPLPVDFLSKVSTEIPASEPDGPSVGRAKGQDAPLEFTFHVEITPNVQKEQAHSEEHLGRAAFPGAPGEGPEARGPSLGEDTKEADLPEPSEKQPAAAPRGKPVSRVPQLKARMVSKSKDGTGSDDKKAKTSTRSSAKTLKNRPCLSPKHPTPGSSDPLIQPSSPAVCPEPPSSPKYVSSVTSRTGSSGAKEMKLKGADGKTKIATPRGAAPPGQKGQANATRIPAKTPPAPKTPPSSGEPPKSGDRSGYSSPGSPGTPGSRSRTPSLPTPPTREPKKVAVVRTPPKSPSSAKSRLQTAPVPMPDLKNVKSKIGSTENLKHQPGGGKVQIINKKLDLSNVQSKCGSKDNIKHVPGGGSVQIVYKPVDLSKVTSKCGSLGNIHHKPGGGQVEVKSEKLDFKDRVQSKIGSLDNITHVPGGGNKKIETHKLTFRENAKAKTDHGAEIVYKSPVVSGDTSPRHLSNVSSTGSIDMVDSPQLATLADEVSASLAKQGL

B1: antibody B (antibody, V domains shown)
VH: EVKVEESGGGLVQPGGSMKLSCVVSGFTFSNYWVNWVRQSPEKGLEWVAQIRLKSDNYATHYEESVKGRFTISRDDSKSSVYLQMNNLRAEDSGIYYCTNWEDYWGQGTTLTVSS
VL: DIVLTQSPASLAVSLGQRATISCRASQSVSTSRYSYIHWYQQKPGQPPKLLIKYASNLESGVPARFSGSGSGTDFTLNIHPLEEEDAATYYCHHSWEIPLTFGAGTKLELK
On to B1, for which the neutralisation of AD-PHF Tau seeding of HEK293 cells expressing P301S Tau (TR-FRET of aggregated Tau), antibody 0.1 to 300 nM; effect only at the highest doses in test [1] amounted to 74%. In test [2], this molecule came in with a Kd of 3.1 nM, a koff of 0.000117 s⁻¹ and a kon of 40000 M⁻¹ s⁻¹.

B2: antibody A (antibody, V domains shown)
VH: EVHLVESGGALVKPGGSLKLSCAASGFSFSKYGMSWVRQTPDKRLEWVATISSSGSRTYYPDSVKGQFTISRDNAKNTLYLQMSSLKSEDTAMYYCSISWDGAMDYWGQGTSVTVSS
VL: DVLMTQTPLSLPVSLGDQASISCKSSQSIVHSNGNTYLEWYLQKPGQSPKLLVYKVSNRFSGVPDRFSGSGSGTDFTLKISRVEAEDLGTYYCFQGSLVPWAFGGGTKLEIK
In test [2], B2 registered a Kd of 0.12 nM, a koff of 2.5e-05 s⁻¹ and an on-rate constant (kon) of 230000 M⁻¹ s⁻¹.

B3: antibody F (antibody, V domains shown)
VH: EVQLVQSGAEVKKPGESLKISCKGSGYTFSNYWIEWVRQMPGKGLEWMGEILPGSDSIKYEKNFKGQVTISADKSISTAYLQWSSLKASDTAMYYCARRGNYVDDWGQGTLVTVSS
VL: EIVLTQSPGTLSLSPGERATLSCRSSQSLVHSNQNTYLHWYQQKPGQAPRLLIYKVDNRFSGIPDRFSGSGSGTDFTLTISRLEPEDFAVYYCSQSTLVPLTFGGGTKVEIK
In test [2], B3 had a Kd of 25.8 nM, a koff of 0.00196 s⁻¹ and a kon of 730000 M⁻¹ s⁻¹.

By koff is commonly meant the first-order rate constant of dissociation. A high value points to fast dissociation. Broadly, the kon is the rate constant with which the complex forms. A low value points to slower complex formation.
